# Article PMC2373884
# Experiments:
# [1] = molecular target: cyclooxygenase-2 (COX-2), endogenous in human neutrophils (human (endogenous in neutrophils)) (UniProt P35354)
# [2] = molecular target: cyclooxygenase-2 (COX-2), endogenous in human neutrophils (human (endogenous in neutrophils)) (UniProt P35354); remark: listed apart in the source
# Chain of UniProt P35354 (P35354 18-604): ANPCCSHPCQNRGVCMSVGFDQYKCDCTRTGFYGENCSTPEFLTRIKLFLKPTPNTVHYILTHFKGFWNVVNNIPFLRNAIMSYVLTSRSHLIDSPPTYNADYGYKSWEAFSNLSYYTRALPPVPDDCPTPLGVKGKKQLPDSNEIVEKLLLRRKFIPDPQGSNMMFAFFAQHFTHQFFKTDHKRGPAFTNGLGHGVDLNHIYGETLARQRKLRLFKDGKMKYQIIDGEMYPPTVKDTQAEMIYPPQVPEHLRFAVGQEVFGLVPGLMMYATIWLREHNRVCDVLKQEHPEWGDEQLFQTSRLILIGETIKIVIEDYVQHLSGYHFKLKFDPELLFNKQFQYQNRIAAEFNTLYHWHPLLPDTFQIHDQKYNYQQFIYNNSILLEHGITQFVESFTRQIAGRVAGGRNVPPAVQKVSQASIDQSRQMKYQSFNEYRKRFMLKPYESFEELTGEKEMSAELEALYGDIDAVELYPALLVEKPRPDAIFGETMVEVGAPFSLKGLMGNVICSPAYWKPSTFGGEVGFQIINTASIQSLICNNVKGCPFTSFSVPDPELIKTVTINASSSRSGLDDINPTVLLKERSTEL
substance,measurement,setting,value
"human recombinant nucleobindin (hrNuc), full length (from UniProt Q02818 27-461) (natural protein)",PGE2 production (ELISA) from arachidonic acid (10 µM) by lysates of COX-2-expressing neutrophils with increasing quantities of hrNuc,[1],5 fold
same,"PGE2 production (ELISA) from arachidonic acid (10 µM) by purified human recombinant COX-2 (1 U/sample, Cayman) with increasing amounts of hrNuc (fold over basal levels)",[2],4
